B1: SEQ ID NO: 12: Escherichia coli ω-transaminase, N-terminal HIS tagged, cell free extract (protein, listed as Escherichia coli)
chain: MNRLPSSASALACSAHALNLIEKRTLDHEEMKALNREVIEYFKEHVNPGFLEYRKSVTAGGDYGAVEWQAGSLNTLVDTQGQEFIDCLGGFGIFNVGHRNPVVVSAVQNQLAKQPLHSQELLDPLRAMLAKTLAALTPGKLKYSFFCNSGTESVEAALKLAKAYQSPRGKFTFIATSGAFHGKSLGALSATAKSTFRKPFMPLLPGFRHVPFGNIEAMRTALNECKKTGDDVAAVILEPIQGEGGVILPPPGYLTAVRKLCDEFGALMILDEVQTGMGRTGKMFACEHENVQPDILCLAKALGGGVMPIGATIATEEVFSVLFDNPFLHTTTFGGNPLACAAALATINVLLEQNLPAQAEQKGDMLLDGFRQLAREYPDLVQEARGKGMLMAIEFVDNEIGYNFASEMFRQRVLVAGTLNNAKTIRIEPPLTLTIEQCELVIKAARKALAAMRVSVEEA
modifications: N-terminal His tag
notes: Escherichia coli ω-transaminase, N-terminal HIS tagged, cell free extract
B2: SEQ ID NO: 7: Segniliparus rotundus carboxylate reductase, N-terminal HIS tagged (protein, listed as Segniliparus rotundus)
chain: MTQSHTQGPQASAAHSRLARRAAELLATDPQAAATLPDPEVVRQATRPGLRLAERVDAILSGYADRPALGQRSFQTVKDPITGRSSVELLPTFDTITYRELRERATAIASDLAHHPQAPAKPGDFLASIGFISVDYVAIDIAGVFAGLTAVPLQTGATLATLTAITAETAPTLFAASIEHLPTAVDAVLATPSVRRLLVFDYRAGSDEDREAVEAAKRKIADAGSSVLVDVLDEVIARGKSAPKAPLPPATDAGDDSLSLLIYTSGSTGTPKGAMYPERNVAHFWGGVWAAAFDEDAAPPVPAINITFLPLSHVASRLSLMPTLARGGLMHFVAKSDLSTLFEDLKLARPTNLFLVPRVVEMLYQHYQSELDRRGVQDGTREAEAVKDDLRTGLLGGRILTAGFGSAPLSAELAGFIESLLQIHLVDGYGSTEAGPVWRDGYLVKPPVTDYKLIDVPELGYFSTDSPHPRGELAIKTQTILPGYYKRPETTAEVFDEDGFYLTGDVVAQIGPEQFAYVDRRKNVLKLSQGEFVTLAKLEAAYSSSPLVRQLFVYGSSERSYLLAVIVPTPDALKKFGVGEAAKAALGESLQKIARDEGLQSYEVPRDFIIETDPFTVENGLLSDARKSLRPKLKEHYGERLEAMYKELADGQANELRDIRRGVQQRPTLETVRRAAAAMLGASAAEIKPDAHFTDLGGDSLSALTFSNFLHDLFEVDVPVGVIVSAANTLGSVAEHIDAQLAGGRARPTFATVHGKGSTTIKASDLTLDKFIDEQTLEAAKHLPKPADPPRTVLLTGANGWLGRFLALEWLERLAPAGGKLITIVRGKDAAQAKARLDAAYESGDPKLAGHYQDLAATTLEVLAGDFSEPRLGLDEATWNRLADEVDFISHPGALVNHVLPYNQLFGPNVAGVAEIIKLAITTRIKPVTYLSTVAVAAGVEPSALDEDGDIRTVSAERSVDEGYANGYGNSKWGGEVLLREAHDRTGLPVRVFRSDMILAHQKYTGQVNATDQFTRLVQSLLATGLAPKSFYELDAQGNRQRAHYDGIPVDFTAESITTLGGDGLEGYRSYNVFNPHRDGVGLDEFVDWLIEAGHPITRIDDYDQWLSRFETSLRGLPESKRQASVLPLLHAFARPGPAVDGSPFRNTVFRTDVQKAKIGAEHDIPHLGKALVLKYADDIKQLGLL
modifications: N-terminal His tag
notes: Segniliparus rotundus carboxylate reductase, N-terminal HIS tagged
B3: SEQ ID NO: 6: Mycobacterium massiliense carboxylate reductase, N-terminal HIS tagged (protein)
chain: MTNETNPQQEQLSRRIESLRESDPQFRAAQPDPAVAEQVLRPGLHLSEAIAALMTGYAERPALGERARELVIDQDGRTTLRLLPRFDTTTYGELWSRTTSVAAAWHHDATHPVKAGDLVATLGFTSIDYTVLDLAIMILGGVAVPLQTSAPASQWTTILAEAEPNTLAVSIELIGAAMESVRATPSIKQVVVFDYTPEVDDQREAFEAASTQLAGTGIALETLDAVIARGAALPAAPLYAPSAGDDPLALLIYTSGSTGAPKGAMHSENIVRRWWIREDVMAGTENLPMIGLNFMPMSHIMGRGTLTSTLSTGGTGYFAASSDMSTLFEDMELIRPTALALVPRVCDMVFQRFQTEVDRRLASGDTASAEAVAAEVKADIRDNLFGGRVSAVMVGSAPLSEELGEFIESCFELNLTDGYGSTEAGMVFRDGIVQRPPVIDYKLVDVPELGYFSTDKPHPRGELLLKTDGMFLGYYKRPEVTASVFDADGFYMTGDIVAELAHDNIEIIDRRNNVLKLSQGEFVAVATLEAEYANSPVVHQIYVYGSSERSYLLAVVVPTPEAVAAAKGDAAALKTTIADSLQDIAKEIQLQSYEVPRDFIIEPQPFTQGNGLLTGIAKLARPNLKAHYGPRLEQMYAEIAEQQAAELRALHGVDPDKPALETVLKAAQALLGVSSAELAADAHFTDLGGDSLSALSFSDLLRDIFAVEVPVGVIVSAANDLGGVAKFVDEQRHSGGTRPTAETVHGAGHTEIRAADLTLDKFIDEATLHAAPSLPKAAGIPHTVLLTGSNGYLGHYLALEWLERLDKTDGKLIVIVRGKNAEAAYGRLEEAFDTGDTELLAHFRSLADKHLEVLAGDIGDPNLGLDADTWQRLADTVDVIVHPAALVNHVLPYNQLFGPNVVGTAEIIKLAITTKIKPVTYLSTVAVAAYVDPTTFDEESDIRLISAVRPIDDGYANGYGNAKWAGEVLLREAHDLCGLPVAVFRSDMILAHSRYTGQLNVPDQFTRLILSLIATGIAPGSFYQAQTTGERPLAHYDGLPGDFTAEAITTLGTQVPEGSEGFVTYDCVNPHADGISLDNFVDWLIEAGYPIARIDNYTEWFTRFDTAIRGLSEKQKQHSLLPLLHAFEQPSAAENHGVVPAKRFQHAVQAAGIGPVGQDGTTDIPHLSRRLIVKYAKDLEQLGLL
modifications: N-terminal His tag; Mycobacterium massiliense
notes: Mycobacterium massiliense carboxylate reductase, N-terminal HIS tagged

How the values were obtained:
[1] = ω-transaminase enzyme activity assay (cadaverine to 5-aminopentanal), cell free extract; format: biochemical
Experimental: A nucleotide sequence encoding an N-terminal His-tag was added to the Chromobacterium violaceum, Pseudomonas aeruginosa, Pseudomonas syringae, and Escherichia coli genes encoding the ω-transaminases of SEQ ID NOs: 8 to 10 and 12, respectively (see, FIG. 10) such that N-terminal HIS tagged ω-transaminases could be produced. The modified genes were cloned into a pET21a expression vector under the T7 promoter. Each expression vector was transformed into a BL21[DE3] E. coli host. Each resulting recombinant E. coli strain were cultivated at 37° C. in a 250 mL shake flask culture containing 50 mL LB media and antibiotic selection pressure, with shaking at 230 rpm. Each culture was induced overnight at 16° C. using 1 mM IPTG.
The pellet from each induced shake flask culture was harvested via centrifugation. Each pellet was resuspended and lysed via sonication. The cell debris was separated from the supernatant via centrifugation and the cell free extract was used immediately in enzyme activity assays.
Enzyme activity assays in the reverse direction (i.e., cadaverine to 5-aminopentanal) were performed in a buffer composed of a final concentration of 50 mM HEPES buffer (pH=7.5), 10 mM cadaverine, 10 mM pyruvate, and 100 μM pyridoxyl 5′ phosphate. […] The formation of L-alanine was quantified via RP-HPLC.

[2] = carboxylate reductase enzyme activity assay (5-hydroxypentanoate to 5-hydroxypentanal), NADPH consumption at 340 nm; format: biochemical; settings: purified enzyme enhanced by the gene product of sfp; 1 mM ATP, 1 mM NADPH, pH 7.5, room temperature, 20 minutes; against the empty vector control; FIG. 14
Experimental: A nucleotide sequence encoding a His-tag was added to the genes from Mycobacterium marinum, Mycobacterium smegmatis, Segniliparus rugosus, Mycobacterium massiliense, and Segniliparus rotundus that encode the carboxylate reductases of SEQ ID NOs: 2-4, 6 and 7, respectively (GenBank Accession Nos. ACC40567.1, ABK71854.1, EFV11917.1, EIV11143.1, and ADG98140.1, respectively) (see FIG. 10) such that N-terminal HIS tagged carboxylate reductases could be produced. Each of the modified genes was cloned into a pET Duet expression vector alongside a sfp gene encoding a His-tagged phosphopantetheine transferase from Bacillus subtilis, both under control of the T7 promoter. Each expression vector was transformed into a BL21[DE3] E. coli host along with the expression vectors from Example 3. Each resulting recombinant E. coli strain was cultivated at 37° C. in a 250 mL shake flask culture containing 50 mL LB media and antibiotic selection pressure, with shaking at 230 rpm. Each culture was induced overnight at 37° C. using an auto-induction media. […]
Enzyme activity (i.e., 5-hydroxypentanoate to 5-hydroxypentanal) assays were performed in triplicate in a buffer composed of a final concentration of 50 mM HEPES buffer (pH=7.5), 2 mM 5-hydroxypentanal, 10 mM MgCl2, 1 mM ATP, and 1 mM NADPH. […] The consumption of NADPH was monitored by absorbance at 340 nm. […]

| Molecule | acceptance of cadaverine as substrate (formation of L-alanine from pyruvate, RP-HPLC) ([1]; 10 mM cadaverine, 10 mM pyruvate, pH 7.5, 25° C., 4 hours, against the empty vector control, FIG. 11) | acceptance of 5-aminopentanal as substrate forming cadaverine, concluded from reversibility of the ω-transaminase activity ([1]; conclusion given reversibility (Example 1)) | acceptance of 5-hydroxypentanoate as substrate (consumption of NADPH, absorbance at 340 nm) [2] |
| --- | --- | --- | --- |
| B1 | accepted cadaverine as substrate | accept 5-aminopentanal as substrate and form cadaverine | – |
| B2 | – | – | accepted 5-hydroxypentanoate as substrate |
| B3 | – | – | accepted 5-hydroxypentanoate as substrate |

— patent US20150361464A1, “METHODS, REAGENTS AND CELLS FOR BIOSYNTHESIZING COMPOUNDS” (INVISTA North America S.á r.l., priority 2014, published 2015)
